Results reported in US20140024594A1.

Target: GFP-MG53 (mouse) (UniProt Q1XH17)
Experiment: cell-based or functional assay

Chain of UniProt Q1XH17 (Q1XH17 whole entry): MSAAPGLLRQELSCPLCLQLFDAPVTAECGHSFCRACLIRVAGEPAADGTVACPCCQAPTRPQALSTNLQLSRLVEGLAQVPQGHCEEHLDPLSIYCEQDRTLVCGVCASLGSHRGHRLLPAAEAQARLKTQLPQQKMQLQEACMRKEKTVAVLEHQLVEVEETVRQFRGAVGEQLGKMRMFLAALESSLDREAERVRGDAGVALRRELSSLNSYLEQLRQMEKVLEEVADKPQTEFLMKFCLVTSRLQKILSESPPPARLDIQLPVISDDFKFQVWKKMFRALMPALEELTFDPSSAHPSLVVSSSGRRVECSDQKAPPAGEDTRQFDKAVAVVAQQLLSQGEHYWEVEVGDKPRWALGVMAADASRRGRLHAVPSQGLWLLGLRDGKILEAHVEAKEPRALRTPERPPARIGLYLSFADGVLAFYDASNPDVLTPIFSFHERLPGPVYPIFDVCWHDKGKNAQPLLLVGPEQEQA

reduction in the appearance of filapodia-like structures: 82%
Substance: caveolin-3 overexpressed from pcDNA-Cav-3
